Results: PMC10821591, “Toxoplasma gondii mitochondrial association factor 1b interactome reveals novel binding partners including Ral GTPase accelerating protein α1” (The Journal of Biological Chemistry, 2023)

Biological target: T1, T. gondii MAF1b (residues 173-443), co-expressed with RalGAPα1(GAP) in insect cells (Toxoplasma gondii, UniProt A0A140H546 173-443)
T1 construct: MAF1b of Toxoplasma gondii, structured C-terminal domain, residues 173-443; The results speak of nickel purification of MAF1b, the methods of streptactin purification and TEV cleavage of RalGAP (±MAF1b)
T1 sequence: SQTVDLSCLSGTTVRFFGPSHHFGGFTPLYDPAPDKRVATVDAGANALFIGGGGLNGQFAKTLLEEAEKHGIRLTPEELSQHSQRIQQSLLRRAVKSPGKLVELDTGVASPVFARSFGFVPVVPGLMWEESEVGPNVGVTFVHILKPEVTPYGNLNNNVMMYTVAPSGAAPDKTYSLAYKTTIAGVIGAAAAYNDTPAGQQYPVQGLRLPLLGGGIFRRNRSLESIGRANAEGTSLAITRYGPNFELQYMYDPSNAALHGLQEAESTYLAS
Test: SEC; RalGAPα1(GAP) co-expressed with MAF1b_WT in T. ni cells, co-purified by affinity chromatography, TEV cleavage, then Superdex 75 16/600 in 20 mM HEPES pH 7.5, 150 mM NaCl, 1 mM DTT; fractions on SDS-PAGE
Settings: both partners purified

B1: GAP domain of human Ral GTPase Accelerating Protein α1 (residues 1807-1988) (domain or fragment)
chain: not shown
notes: Human RalGAPα1, putative GAP domain, amino acids T1807-P1988 of NP_055805.1; also called RalGAPα1(GAP); RalGAP; not shown: twin-strep-II, N-terminal, cleaved
  binding result: binds
